From publication PMC13233820 (2026)

How the values were obtained:
yeast Smt3 (Smt3-6xHis) [1] = biological target: T1, yeast Smt3 (Smt3-6xHis) (S. cerevisiae, UniProt Q12306 1-101 = SUMO, U-[13C,15N] labelled in the NMR experiments); test: ITC; Smt3 300 uM
T1 chain: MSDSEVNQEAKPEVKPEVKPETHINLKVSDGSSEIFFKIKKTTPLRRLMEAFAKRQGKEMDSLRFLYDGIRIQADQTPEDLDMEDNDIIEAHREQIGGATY

yeast Smt3 (Smt3-6xHis) [2] = biological target: T1, yeast Smt3 (Smt3-6xHis); test: ITC; Smt3 150 uM

Kd (yeast Smt3 (Smt3-6xHis) [1]): 15.3 µM
Kd (yeast Smt3 (Smt3-6xHis) [2]): 30.2 µM
Binder: ENDIIMVSTDE [synthetic Mre11-SIM3 peptide, wild type]
